Measurements published in PMC9896067, “Peptide Supramolecular Assembly‐Instructed In Situ Self‐Aggregation for Stratified Targeting Sonodynamic Therapy Enhancement of AIE Luminogens” (Advanced Science, 2022).
Where a SMILES comes first, the peptide text is derived from it. The star is where a group is joined. X1 = O=C(c1cc(OCCCCCC(=O)*)cc(C(=O)c2ccc3ccc4cccc5ccc2c3c45)c1)c1ccc2ccc3cccc4ccc1c2c34

What was measured:
[1] = tested on: 4T1 cells; assay: CCK‐8 viability of 4T1 cells with or without US; assay type: cell-based, murine; conditions: for survival of 4T1 cells: without US irradiation, various concentrations
Procedure: To determine the antitumor efficacy in vitro, the 4T1 cells were divided into the following 6 groups: i) control, ii) control + US, iii) BP + US, iv) PAHN‐3 + US, v) PAHN‐2 + US, and vi) PAHN‐1 + US. Then, the medium were replaced with the fresh medium containing corresponding formulations at different concentrations (30, 60, 120 µM). After 4 h of treatment, the cells were rinsed with PBS and then treated by US at an intensity of 3 W cm^−2 for 4 min. After that, the culture medium was replaced by a fresh serum‐free medium for another 4 h incubation. Finally, a standard CCK‐8 assay was used to evaluate the viability of the cells. The therapeutic effect was also detected by cellular apoptosis assay. In brief, the 4T1 cells were divided into the 6 groups as described above. Next, cells were treated with either BP, PAHN‐3, PAHN‐2, PAHN‐1 at a concentration of 120 µM, or PBS, followed by US irradiation. Finally, these cells were costained by a dye solution of calcein AM (2 µM) and PI (2 µM) or collected for apoptosis analysis using flow cytometry.

[2] = tested on: 4T1 tumor‐bearing mice; assay: In vivo and ex vivo fluorescence imaging / biodistribution; conditions: DIR‐labelled, i.v. 2.4 µmol kg^−1, n = 3; for ex vivo distribution in tumor and major organs: 48 h postinjection
Procedure: For the fluorescence imaging and biodistribution assessment in vivo, DIR‐labelled nanosystem was prepared. Briefly, 2 µL of DIR stock solution (2 mM) was added to 1 mL of the PAHN. After stirring for 12 h, the DIR‐labelled nanosystem was finally obtained after dialyzing against deionized water using a dialysis bag (MWCO: 3500 Da) overnight to remove excess DIR. 4T1 tumor‐bearing mice (n = 3) were intravenously injected with DIR‐labelled (Ex/Em = 748 nm/780 nm) PAHN‐1 or PAHN‐2 at a dose of 2.4 µmol kg^−1. Fluorescence images were acquired at preinjection, and 0, 0.5, 1, 2, 6, 24 and 48 h postinjection by using a fluorescence imaging system (CRi Inc., USA). The tumor tissues and major organs were isolated and obtained for ex vivo imaging on the day of animal sacrifice. The corresponding fluorescence intensities were recorded.

[3] = tested on: HUVECs; assay: CCK‐8 cytotoxicity against HUVECs; assay type: cell-based, human; conditions: without US
[4] = tested on: inoblast L929; assay: CCK‐8 cytotoxicity against L929; assay type: cell-based; conditions: without US
[5] = tested on: healthy mice; assay: Biosafety of PAHN in vivo (H&E, routine blood, blood biochemistry); conditions: i.v. 2.4 µmol kg^−1, 1, 3, 7, 14, 28 d postinjection, n = 5
Text: To investigate the short and long‐term biosafety of PAHN‐1 in vivo, PAHN‐1 at a dose of 2.4 µmol kg^−1 was intravenously injected into twenty five healthy mice that were sacrificed at predetermined time points (1, 3, 7, 14, and 28 d postinjection). Five healthy mice that were administrated with the saline solution served as the control group. The blood samples were then collected for biochemistry and routine blood examination. The main organs were stained with H&E.

Row | Structure (SMILES) | survival of 4T1 cells ([1]; CCK‐8) | ex vivo distribution in tumor and major organs [2] | time of maximum fluorescence signal of the tumor region [2] [h] | cell viability ([1]; 4T1 cells, + US 3 W cm^−2, 4 min after 4 h treatment, 30, 60, 120 µM tested, CCK‐8, n = 3) | viability of cells ([1]; 4T1 cells, without US, concentration of BP up to 120 µM, CCK‐8) | cytotoxicity against HUVECs [3] | cytotoxicity against L929 [4] | hematological indices (routine blood, blood biochemistry) ([5]; compared to control) | histopathology of major organs (H&E) [5]
1 | CC(C)C[C@H](NC(=O)[C@@H](NC(=O)[C@H](Cc1ccccc1)NC(=O)[C@H](Cc1ccccc1)NC(=O)[C@H](Cc1ccccc1)NC(=O)[C@H](CS)NC(=O)CCCCCOc1cc(C(=O)c2ccc3ccc4cccc5ccc2c3c45)cc(C(=O)c2ccc3ccc4cccc5ccc2c3c45)c1)C(C)C)C(=O)N[C@@H](CCCCN)C(=O)N[C@@H](CCCCN)C(=O)N[C@@H](CCCCN)C(=O)N[C@@H](CC(=O)O)C(=O)N[C@@H](CCC(=O)O)C(=O)N[C@H](C(=O)N[C@@H](CC(=O)O)C(=O)N[C@@H](C)C(=O)N[C@@H](CCCCN)C(=O)N[C@@H](CCCNC(=N)N)C(=O)NCC(=O)N[C@@H](C)C(=O)N[C@@H](CCCNC(=N)N)C(=O)N[C@@H](CO)C(=O)N[C@H](C(=O)N[C@@H](C)C(=O)O)[C@@H](C)O)C(C)C [PAHN-3] (X1-CFFFVLKKKDEVDAKRGARSTA-OH) | no evident change | – | – | – | – | – | – | – | –
2 | CC(C)C[C@H](NC(=O)[C@H](CCCCN)NC(=O)[C@H](C)NC(=O)[C@H](CC(C)C)NC(=O)[C@H](CCCCN)NC(=O)[C@H](CC(C)C)NC(=O)[C@@H](NC(=O)[C@H](Cc1ccccc1)NC(=O)[C@H](Cc1ccccc1)NC(=O)[C@H](Cc1ccccc1)NC(=O)[C@H](CS)NC(=O)CCCCCOc1cc(C(=O)c2ccc3ccc4cccc5ccc2c3c45)cc(C(=O)c2ccc3ccc4cccc5ccc2c3c45)c1)C(C)C)C(=O)N[C@@H](C)C(=O)N[C@@H](CCCCN)C(=O)N[C@@H](CC(=O)O)C(=O)N[C@@H](CCC(=O)O)C(=O)N[C@H](C(=O)N[C@@H](CC(=O)O)C(=O)N[C@@H](C)C(=O)N[C@@H](CCCCN)C(=O)N[C@@H](CCCNC(=N)N)C(=O)NCC(=O)N[C@@H](C)C(=O)N[C@@H](CCCNC(=N)N)C(=O)N[C@@H](CO)C(=O)N[C@H](C(=O)N[C@@H](C)C(=O)O)[C@@H](C)O)C(C)C [PAHN-1] (X1-CFFFVLKLAKLAKDEVDAKRGARSTA-OH) | – | relatively greater tumor accumulation | 24 | less than 20% | higher than 80% | negligible cytotoxicity | negligible cytotoxicity | negligible variations | neither significant histopathological changes nor abnormal inflammatory responses
3 | CC(C)C[C@H](NC(=O)[C@H](CCCCN)NC(=O)[C@H](C)NC(=O)[C@H](CC(C)C)NC(=O)[C@H](CCCCN)NC(=O)[C@H](CC(C)C)NC(=O)[C@@H](NC(=O)[C@H](Cc1ccccc1)NC(=O)[C@H](Cc1ccccc1)NC(=O)[C@H](Cc1ccccc1)NC(=O)[C@H](CS)NC(=O)CCCCCOc1cc(C(=O)c2ccc3ccc4cccc5ccc2c3c45)cc(C(=O)c2ccc3ccc4cccc5ccc2c3c45)c1)C(C)C)C(=O)N[C@@H](C)C(=O)N[C@@H](CCCCN)C(=O)N[C@@H](CC(=O)O)C(=O)N[C@@H](CCC(=O)O)C(=O)N[C@H](C(=O)N[C@@H](CC(=O)O)C(=O)N[C@@H](C)C(=O)N[C@@H](CCCCN)C(=O)N[C@@H](CC(=O)O)C(=O)NCC(=O)N[C@@H](C)C(=O)N[C@@H](CCC(=O)O)C(=O)N[C@@H](CO)C(=O)N[C@@H](Cc1c[nH]cn1)C(=O)N[C@@H](Cc1c[nH]cn1)C(=O)O)C(C)C [PAHN-2] (X1-CFFFVLKLAKLAKDEVDAKDGAESHH-OH) | no evident change | tended to accumulate in the liver and spleen | – | – | – | – | – | – | –
